Assays:
[1] = molecular target: T1, hemagglutinin (HA) of A/Netherlands/602/2009 (pH1N1), on virions (Influenza A virus …, UniProt C3PSV2); assay: flow cytometry on cells; details: partners not purified
T1 construct: also called A/Netherlands/602/09; A/Neth/09

[2] = molecular target: T2, HA-hFc probe: H1N1 A/California/04/2009 HA ectodomain fused to human IgG1 Fc (Influenza A virus A/California/04/2009 …, UniProt C3W5S1); assay: flow cytometry on cells; details: one partner purified
T2 construct: also called HA-probe; HA-human Fc probe; source: High Five insect cells (recombinant baculovirus), purified (HiTrap Protein G); not shown: Fc (human IgG1), C-terminal, kept

| Binder | binding result [1] | binding result [2] |
| --- | --- | --- |
| fTfR-5J8 chimeric antibody-based receptor, stably expressed on A549 Slc35A1 KO cells (scFv, V domains shown, also called LV-fTfR-5J8; LV-5J8-TfR) VH: EVQLVESGPGLVKPSDILSLTCAVSGYSISSNYYWGWIRQPPGKGLEWIGSIYHSGSTYYKPSLESRLGISVDTSKNQFSLKLSFVSAADTAVYYCARHVRSGYPDTAYYFDKWGQGTLVTVSS VL: SYVLTQPPSVSVAPGETARISCGGNNIGTKVLHWYQQTPGQAPVLVVYDDSDRPSGIPERFSGSNSGNTATLTISRVEVGDEADYYCQVWDISTDQAVFGGGTKLTVL | binds |  |
| Flag-tagged fTfR-5J8 receptor, WT (Flag+) (scFv, V domains shown, also called WT receptor) VH: EVQLVESGPGLVKPSDILSLTCAVSGYSISSNYYWGWIRQPPGKGLEWIGSIYHSGSTYYKPSLESRLGISVDTSKNQFSLKLSFVSAADTAVYYCARHVRSGYPDTAYYFDKWGQGTLVTVSS VL: SYVLTQPPSVSVAPGETARISCGGNNIGTKVLHWYQQTPGQAPVLVVYDDSDRPSGIPERFSGSNSGNTATLTISRVEVGDEADYYCQVWDISTDQAVFGGGTKLTVL |  | binds |

— paper PMC12090727, “Cell binding, uptake, and infection of influenza A virus using recombinant antibody-based receptors” (Journal of Virology, 2025)
